B1: feNGF mAb: recombinant purified felinized anti-NGF monoclonal antibody, clone JCV4, SEQ ID NOs: 1 and 2 (antibody, V domains shown)
VH: QVQLMESGADLVQPSESLRLTCVASGLSLTNNNVNWVRQAPGKGLEWMGGVWAGGATDYNSALKSRLTITRDTSKNTVFLQMHSLQSEDTATYYCARDGGYSSSTLYAMDAWGQGTTVTVSA
VL: DIEMTQSPLSLSATPGETVSISCRASEDIYNALAWYLQKPGRSPRLLIYNTDTLHTGVPDRFSGSGSGTDFTLKISRVQTEDVGVYFCQHYFHYPRTFGQGTKLELK
modifications: felinized anti-NGF antibody VH Sequence; felinized anti-NGF antibody VL Sequence
B2: fNGFV5_1 mAb: purified felinized anti-NGF monoclonal antibody, clone V5_1, SEQ ID NOs: 2 and 5 (antibody, V domains shown)
VL: DIEMTQSPLSLSATPGETVSISCRASEDIYNALAWYLQKPGRSPRLLIYNTDTLHTGVPDRFSGSGSGTDFTLKISRVQTEDVGVYFCQHYFHYPRTFGQGTKLELK
VH: QVQLVESGGDLVQPGGSLRLTCVASGFSLTNNNVNWVRQAPGKGLEWMGGVWAGGATDYNSAVKSRLTITRDTSKNTVFLQMHSLQSEDTATYYCARDGGYSSSTLYAMDAWGQGTTVTVSA
modifications: felinized anti-NGF antibody VL Sequence; felinized anti-NGF antibody (V5_1) VH Sequence

What was measured:
[1] = tested on: anti-transgene product antibody (ATPA) response, anti-(anti-feNGF mAb) antibodies; test: Bridging immunoassay for anti-transgene product antibodies (ATPA) in cat serum after IM AAV; settings: cats; for ATPA up to 98 days post AAV administration: mAb 2 mg/kg SC 14 days before AAV IM 2.5×10^11 gc/kg
Protocol: A bridging Immunoassay with acid dissociation was used to evaluate the presence of anti-(anti-feNGF mAb) antibodies in the cat serum. Samples were pre-treated with acid to disrupt any existing ATPA-feNGF mAb complexes before assessment in the bridging assay. Samples were diluted to 2.5% in 300 mM acetic acid to enable ATPA-feNGF mAb complex dissociation before analysis. Acidified samples were incubated for 40 min with shaking at ambient temperature. 25 μl of the acidified samples were transferred to wells of a 96 well plate containing 90 μL of master-mix reagent (0.125 μg/mL of biotinylated feNGF mAb and 0.125 μg/mL of ruthenylated feNGF mAb with 1% Meso Scale Discovery (MSD) Blocker A in PBS-T) and 11 μL 1.2M Tris solution (pH 9.5). Acidified samples plus master-mix reagents were incubated at ambient temperature in the dark for 60 min with shaking. Simultaneously, Streptavidin-coated MSD plates were blocked for 60 min at ambient temperature with 200 μL/well of PBS-T buffer containing 3% (MSD) Blocker A. The Streptavidin-coated MSD plates were then washed and 25 μl of the acidified sample plus master-mix reagent were transferred to the plates which were then incubated at ambient temperature in the dark for 60-90 min with shaking. The MSD plates were washed and then 150 μL of 2×MSD Read T-Buffer was added per well before the plates were read on an MSD MESO QuickPlex SQ 120 instrument. The resulting response was recorded as Relative Light Units (RLU).
A bridging immunoassay with acid dissociation was used to evaluate the presence of anti-(anti-feNGF mAb) antibodies in the cat serum at timepoints when the circulating levels of drug were at the lowest (pre-dose). Samples were pre-treated with acid to disrupt any existing ADA-feNGF mAb complexes before assessment in the bridging assay. Briefly, samples were diluted to 2.5% in 300 mM acetic acid to enable ADA-drug complex dissociation before analysis. Acidified samples were incubated for 40 min with shaking at ambient temperature. 25 μl of the acidified samples were transferred to wells of a 96 well plate containing 90 μL of master-mix reagent (0.125 μg/mL of biotinylated feNGF mAb and 0.125 μg/mL of ruthenylated feNGF mAb with 1% Meso Scale Discovery (MSD) Blocker A in PBS-T) and 11 μL 1.2M Tris solution (pH 9.5). Acidified samples plus master-mix reagents were incubated at ambient temperature in the dark for 60 min with shaking. Simultaneously, Streptavidin-coated MSD plates were blocked for 60 min at ambient temperature with 200 μL/well of PBS-T buffer containing 3% (MSD) Blocker A.
The Streptavidin-coated MSD plates were then washed and 25 ul of the acidified sample plus master-mix reagent were transferred to the plates which were then incubated at ambient temperature in the dark for 60-90 min with shaking. The MSD plates were washed, 150 μL of 2×MSD Read T-Buffer was added per well before the plates were read on an MSD MESO QuickPlex SQ 120 instrument. The resulting response was recorded as Relative Light Units (RLU).
A bridging immunoassay with acid dissociation was used to evaluate the presence of anti-(anti-feNGF mAb) antibodies in the cat serum at timepoints when the circulating levels of drug were at the lowest (pre-dose). Samples were pre-treated with acid to disrupt any existing ADA-feNGF mAb complexes before assessment in the bridging assay. Briefly, samples were diluted to 2.5% in 300 mM acetic acid to enable ADA-drug complex dissociation before analysis. Acidified samples were incubated for 40 min with shaking at ambient temperature.

[2] = Serum level of feNGF mAb in cats by NGF-binding ELISA; format: in vivo, cat
Protocol: The concentration of FeNGF mAb in cat serum was determined using an NGF-binding ELISA. ELISA plates were coated with 0.1 μg/ml muNGF and blocked with PBS/0.05% Tween 20/1% BSA. muNGF coated wells were incubated for 1 h at room temperature with serum diluted in PBS/0.05% Tween 20/1% BSA in the amount of 100 μl/well. FeNGF antibody concentrations ranging from 1.56 ng/ml to 100 ng/ml were used to establish a binding curve. Well plates were washed following incubation and were then incubated with a 1/10,000 dilution of goat anti-feline IgG-HRP in PBS/0.05% Tween 20/1% BSA. Plates were washed with PBS/0.05% Tween 20 and developed by the addition of 3,3′,5,5′-tetramethylbenzidine (TMB) substrate. Development was stopped by the addition of 2M H2SO4 and the absorbance read at 450 nm and background was subtracted from the resulting reading.
The concentration of feline anti-NGF mAb in cat serum was determined using an NGF-binding ELISA. […] Development was stopped by the addition of 2M H2SO4 and absorbance read at 450 nm and background was subtracted.
The concentration of feline anti-NGF mAbs in cat serum was determined using an NGF-binding ELISA. […] Development was stopped by the addition of 2M H2SO4 and absorbance read at 450 nm and background was subtracted.

Molecule	ATPA up to 98 days post AAV administration ([1]; Example 7)	ATPA response after pre-treatment ([1]; pre-treatment, then AAV.CB7.feNGF IM 2.5×10^11 gc/kg at day 0 (FIG. 4E-4H))	expression of feNGF mAb in the serum ([2]; mAb 2 mg/kg SC day −14, then AAV.CB7.feNGF IM 2.5×10^11 gc/kg day 0 (FIG. 4B))	ATPA signal following the recombinant mAb administration ([1]; Example 7, V5_1 pre-treatment group, did not persist, did not affect transgene expression (FIG. 10F))	treatment induced ATPA response ([1]; Example 8, mAb 2 mg/kg SC day −14, then high dose of AAV (1×10^13 gc/cat))	treatment-emergent immunogenicity up to 56 days post AAV administration ([1]; Example 8, mAb 2 mg/kg SC day −14, then medium dose of AAV (1×10^12 gc/cat))	detectable serum antibody ([2]; Example 8, high dose (1×10^13 gc/cat) cohort, the animal with ATPA response)
B1	no evidence of ATPA was observed	no ATPA response was observed	strong, sustained expression of feNGF mAb was observed				
B2	no evidence of ATPA was observed			low, transient ATPA signal was observed in one animal	A single treatment induced ATPA response was observed	no evidence of treatment-emergent immunogenicity was observed	sudden loss in detectable serum antibody

Source: patent publication US20230391862A1, “METHOD OF S[…] RESPONSE TO VECTOR-DELIVERED T[…]” (Scout Bio, Inc., priority 2020, published 2023)
